From publication PMC3552336

Target: HA-p68 (wild type) (UniProt P17844)
UniProt P17844, sequence (P17844 whole entry): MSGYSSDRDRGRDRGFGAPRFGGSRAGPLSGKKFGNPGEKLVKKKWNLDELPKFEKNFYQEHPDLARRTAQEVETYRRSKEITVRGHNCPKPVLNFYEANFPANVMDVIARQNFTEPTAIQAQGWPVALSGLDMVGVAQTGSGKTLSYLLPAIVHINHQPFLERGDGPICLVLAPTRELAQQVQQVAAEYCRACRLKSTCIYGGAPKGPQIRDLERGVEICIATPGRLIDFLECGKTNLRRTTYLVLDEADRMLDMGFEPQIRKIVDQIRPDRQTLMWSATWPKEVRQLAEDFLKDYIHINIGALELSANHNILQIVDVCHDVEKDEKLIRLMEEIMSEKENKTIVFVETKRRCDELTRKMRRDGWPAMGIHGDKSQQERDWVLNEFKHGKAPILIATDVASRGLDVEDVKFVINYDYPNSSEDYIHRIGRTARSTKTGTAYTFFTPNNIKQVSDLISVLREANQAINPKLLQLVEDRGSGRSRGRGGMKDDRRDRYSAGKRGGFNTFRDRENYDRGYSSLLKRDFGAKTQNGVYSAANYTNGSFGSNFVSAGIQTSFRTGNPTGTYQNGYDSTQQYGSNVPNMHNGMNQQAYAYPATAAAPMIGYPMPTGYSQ

- microtubule gliding assay, p68/Ca^2+-CaM (ATP): % of gliding microtubules (n=50): 74.2%
- microtubule gliding assay, p68/Ca^2+-CaM (ATP): maximum gliding speed: 0.52 µm/min
- microtubule gliding assay, p68/Ca^2+-CaM (ATP): mean gliding speed: 0.16 µm/min
Substance: Rhodamine labeled microtubule (from UniProt P02550;P02554) (complex)
